Source: patent US20200369765A1 (INNATE PHARMA, published 2020)

Assays:
[1] = target: T1, Human Siglec-9 mutant M14 (human, UniProt Q9Y336 18-463); assay: flow cytometry, HEK293T transfectants
T1 construct: Expressed on HEK293T cells; also called Mutant 14

[2] = target: T2, Human Siglec-9 mutant M15 (human, UniProt Q9Y336 18-463); assay: flow cytometry, HEK293T transfectants
T2 construct: Expressed on HEK293T cells; also called Mutant 15

[3] = target: T3, Human Siglec-9 mutant M8 (human, UniProt Q9Y336 18-463); assay: flow cytometry, HEK293T transfectants
T3 construct: Expressed on HEK293T cells; also called Mutant 8

[4] = target: T4, Human Siglec-9 mutant M11 (human, UniProt Q9Y336 18-463); assay: flow cytometry, HEK293T transfectants
T4 construct: Expressed on HEK293T cells; also called Mutant 11

[5] = target: T5, Human Siglec-9 mutant M6 (human, UniProt Q9Y336 18-463); assay: flow cytometry, HEK293T transfectants; '-' indicates full loss of binding
T5 construct: Expressed on HEK293T cells; also called Mutant 6

[6] = target: T6, Siglec-9 Fc protein (human); assay: SPR (Biacore T200), Fab over immobilized Siglec-9 Fc, 1:1 model
T6 construct: Produced in CHO cells; also called human Siglec-9 Fc
Protocol: (§1) SPR measurements were performed on a Biacore™ T200 apparatus (Biacore™ GE Healthcare) at 25° C. In all Biacore™ experiments HBS-EP+(Biacore™ GE Healthcare) and NaOH 10 mM served as running buffer and regeneration buffer respectively. Sensorgrams were analyzed with Biacore™ T200 Evaluation software. Human siglec-9 and -7 multimeric proteins were cloned, produced and purified at Innate Pharma.
(§2) Proteins were immobilized covalently to carboxyl groups in the dextran layer on a Sensor Chip CM5. The chip surface was activated with EDC/NHS (N-ethyl-N′-(3-dimethylaminopropyl) carbodiamide hydrochloride and N-hydroxysuccinimide (Biacore™ GE Healthcare). Proteins were diluted to 10 μg/ml in coupling buffer (10 mM acetate, pH 4.2 & 5.0) and injected until the appropriate immobilization level was reached (i.e., 600 to 2000RU). Deactivation of the remaining activated groups was performed using 100 mM ethanolamine pH 8 (Biacore™, GE Healthcare).
(§3) The affinity study was carried out according to a standard Kinetic protocol recommended by the manufacturer (Biacore™ GE Healthcare kinetic wizard). […] The entire sensorgram sets were fitted using the 1:1 kinetic binding model. Monovalent affinities and kinetic association and dissociation rate constants are shown below in Table 2 below.

[7] = target: T7, Siglec-7 Fc protein (human); assay: SPR (Biacore T200), Fab over immobilized Siglec-7 Fc, 1:1 model
T7 construct: Produced in CHO cells; also called human Siglec-7 Fc
Protocol: as §1, §2, §3

[8] = target: T8, Human Siglec-9 mutant M2 (human, UniProt Q9Y336 18-463); assay: flow cytometry, HEK293T transfectants
T8 construct: Expressed on HEK293T cells; also called Mutant 2

[9] = target: T9, Human Siglec-9 mutant M7 (human, UniProt Q9Y336 18-463); assay: flow cytometry, HEK293T transfectants
T9 construct: Expressed on HEK293T cells; also called Mutant 7

[10] = target: T5, Human Siglec-9 mutant M6; assay: flow cytometry, HEK293T transfectants
[11] = target: T10, Human Siglec-9 mutant M5 (human, UniProt Q9Y336 18-463); assay: flow cytometry, HEK293T transfectants
T10 construct: Expressed on HEK293T cells; also called Mutant 5

[12] = target: T4, Human Siglec-9 mutant M11; assay: flow cytometry, HEK293T transfectants; '-' indicates full loss of binding
[13] = target: T11, Human Siglec-9 mutant M16 (human, UniProt Q9Y336 18-463); assay: as above
T11 construct: Expressed on HEK293T cells; also called Mutant 16

[14] = target: T3, Human Siglec-9 mutant M8; assay: as above

T5 sequence (Q9Y336 other isoform, or with tags, fused parts or gaps mutant): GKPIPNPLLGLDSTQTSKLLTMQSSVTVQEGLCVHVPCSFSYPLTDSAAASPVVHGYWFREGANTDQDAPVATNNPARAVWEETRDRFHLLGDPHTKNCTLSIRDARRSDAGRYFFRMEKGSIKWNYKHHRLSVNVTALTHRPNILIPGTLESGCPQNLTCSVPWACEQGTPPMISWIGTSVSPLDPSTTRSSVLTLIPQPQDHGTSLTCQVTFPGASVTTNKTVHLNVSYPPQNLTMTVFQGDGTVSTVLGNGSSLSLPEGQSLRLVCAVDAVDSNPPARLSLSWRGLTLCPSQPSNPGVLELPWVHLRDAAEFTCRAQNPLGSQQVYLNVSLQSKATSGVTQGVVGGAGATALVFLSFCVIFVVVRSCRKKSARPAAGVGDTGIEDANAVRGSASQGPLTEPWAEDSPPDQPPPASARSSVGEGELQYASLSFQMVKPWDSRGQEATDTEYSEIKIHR
T6 sequence (chain, as listed by the source limits assumed): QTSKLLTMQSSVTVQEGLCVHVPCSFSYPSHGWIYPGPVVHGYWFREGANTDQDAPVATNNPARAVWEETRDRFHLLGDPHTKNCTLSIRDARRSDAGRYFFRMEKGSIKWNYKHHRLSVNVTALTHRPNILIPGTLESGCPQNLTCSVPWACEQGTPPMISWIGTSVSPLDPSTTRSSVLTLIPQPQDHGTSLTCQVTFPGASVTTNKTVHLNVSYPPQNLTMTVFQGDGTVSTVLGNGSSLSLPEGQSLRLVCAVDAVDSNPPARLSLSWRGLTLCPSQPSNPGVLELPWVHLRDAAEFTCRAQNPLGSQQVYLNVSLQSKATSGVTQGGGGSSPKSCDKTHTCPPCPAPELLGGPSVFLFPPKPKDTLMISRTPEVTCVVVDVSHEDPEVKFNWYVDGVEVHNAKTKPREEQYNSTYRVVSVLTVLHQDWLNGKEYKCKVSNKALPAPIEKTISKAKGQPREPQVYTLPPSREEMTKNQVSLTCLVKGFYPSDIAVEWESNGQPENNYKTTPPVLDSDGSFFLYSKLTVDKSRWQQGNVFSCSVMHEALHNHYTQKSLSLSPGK
T2 sequence (Q9Y336 other isoform, or with tags, fused parts or gaps mutant): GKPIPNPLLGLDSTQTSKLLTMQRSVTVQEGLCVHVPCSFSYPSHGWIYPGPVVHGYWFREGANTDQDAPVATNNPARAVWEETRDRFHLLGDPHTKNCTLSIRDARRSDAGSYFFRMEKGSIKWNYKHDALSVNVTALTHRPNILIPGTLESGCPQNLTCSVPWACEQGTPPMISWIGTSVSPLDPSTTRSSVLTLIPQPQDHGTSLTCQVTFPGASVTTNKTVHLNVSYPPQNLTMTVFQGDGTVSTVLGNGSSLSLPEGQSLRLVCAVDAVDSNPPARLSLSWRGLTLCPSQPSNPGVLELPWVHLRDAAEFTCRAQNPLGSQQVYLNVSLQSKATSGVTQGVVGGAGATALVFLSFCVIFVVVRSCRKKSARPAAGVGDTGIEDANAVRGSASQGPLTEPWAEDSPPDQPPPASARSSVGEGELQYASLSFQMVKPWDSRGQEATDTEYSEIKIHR
T10 sequence (Q9Y336 other isoform, or with tags, fused parts or gaps mutant): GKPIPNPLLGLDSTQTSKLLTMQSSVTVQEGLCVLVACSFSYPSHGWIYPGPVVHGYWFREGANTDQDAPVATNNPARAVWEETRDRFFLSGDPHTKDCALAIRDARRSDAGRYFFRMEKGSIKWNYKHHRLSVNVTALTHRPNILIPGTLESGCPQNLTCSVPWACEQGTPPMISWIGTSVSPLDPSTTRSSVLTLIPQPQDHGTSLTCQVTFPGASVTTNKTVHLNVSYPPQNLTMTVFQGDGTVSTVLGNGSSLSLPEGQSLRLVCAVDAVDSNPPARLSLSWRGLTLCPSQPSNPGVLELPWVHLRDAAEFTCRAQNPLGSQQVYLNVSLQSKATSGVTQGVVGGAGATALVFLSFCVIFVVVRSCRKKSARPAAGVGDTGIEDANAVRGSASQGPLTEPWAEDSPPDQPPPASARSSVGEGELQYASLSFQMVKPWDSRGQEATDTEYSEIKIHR
T4 sequence (Q9Y336 other isoform, or with tags, fused parts or gaps mutant): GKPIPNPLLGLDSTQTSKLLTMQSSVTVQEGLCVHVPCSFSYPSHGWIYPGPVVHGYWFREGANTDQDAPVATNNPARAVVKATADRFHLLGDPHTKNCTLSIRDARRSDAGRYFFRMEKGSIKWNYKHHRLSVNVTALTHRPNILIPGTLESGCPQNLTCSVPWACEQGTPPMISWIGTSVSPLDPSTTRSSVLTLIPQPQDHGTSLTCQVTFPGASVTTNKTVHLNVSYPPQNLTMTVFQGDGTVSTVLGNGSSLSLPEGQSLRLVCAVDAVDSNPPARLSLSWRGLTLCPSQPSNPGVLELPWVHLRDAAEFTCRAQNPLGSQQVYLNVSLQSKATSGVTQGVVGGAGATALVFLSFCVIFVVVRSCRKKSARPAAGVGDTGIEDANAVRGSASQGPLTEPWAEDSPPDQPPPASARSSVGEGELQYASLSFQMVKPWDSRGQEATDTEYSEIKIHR
T9 sequence (Q9Y336 other isoform, or with tags, fused parts or gaps mutant): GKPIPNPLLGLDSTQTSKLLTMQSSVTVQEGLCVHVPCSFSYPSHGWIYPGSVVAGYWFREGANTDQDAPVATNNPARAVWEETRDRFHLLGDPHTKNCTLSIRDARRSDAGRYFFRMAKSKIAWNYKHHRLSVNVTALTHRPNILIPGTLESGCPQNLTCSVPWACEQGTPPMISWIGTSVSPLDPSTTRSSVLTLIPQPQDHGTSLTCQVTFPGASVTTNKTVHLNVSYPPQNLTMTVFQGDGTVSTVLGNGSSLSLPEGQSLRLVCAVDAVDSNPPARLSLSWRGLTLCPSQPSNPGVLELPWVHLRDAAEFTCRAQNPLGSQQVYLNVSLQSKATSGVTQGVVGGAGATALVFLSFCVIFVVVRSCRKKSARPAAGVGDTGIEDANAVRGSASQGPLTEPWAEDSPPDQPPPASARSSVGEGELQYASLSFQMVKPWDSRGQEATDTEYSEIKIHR
T3 sequence (Q9Y336 other isoform, or with tags, fused parts or gaps mutant): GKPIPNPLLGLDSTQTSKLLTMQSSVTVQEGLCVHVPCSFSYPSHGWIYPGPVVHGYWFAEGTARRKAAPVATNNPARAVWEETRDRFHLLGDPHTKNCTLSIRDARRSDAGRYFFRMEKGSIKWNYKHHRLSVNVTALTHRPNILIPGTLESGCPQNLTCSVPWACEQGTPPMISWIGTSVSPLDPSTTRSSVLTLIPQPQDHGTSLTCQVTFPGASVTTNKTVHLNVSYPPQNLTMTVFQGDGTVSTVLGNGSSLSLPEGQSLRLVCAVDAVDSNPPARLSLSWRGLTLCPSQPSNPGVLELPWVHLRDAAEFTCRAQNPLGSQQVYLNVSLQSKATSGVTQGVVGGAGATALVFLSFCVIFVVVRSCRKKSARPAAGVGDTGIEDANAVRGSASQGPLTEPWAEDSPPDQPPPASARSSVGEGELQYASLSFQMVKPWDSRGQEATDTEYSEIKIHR
T7 sequence (chain, as listed by the source limits assumed): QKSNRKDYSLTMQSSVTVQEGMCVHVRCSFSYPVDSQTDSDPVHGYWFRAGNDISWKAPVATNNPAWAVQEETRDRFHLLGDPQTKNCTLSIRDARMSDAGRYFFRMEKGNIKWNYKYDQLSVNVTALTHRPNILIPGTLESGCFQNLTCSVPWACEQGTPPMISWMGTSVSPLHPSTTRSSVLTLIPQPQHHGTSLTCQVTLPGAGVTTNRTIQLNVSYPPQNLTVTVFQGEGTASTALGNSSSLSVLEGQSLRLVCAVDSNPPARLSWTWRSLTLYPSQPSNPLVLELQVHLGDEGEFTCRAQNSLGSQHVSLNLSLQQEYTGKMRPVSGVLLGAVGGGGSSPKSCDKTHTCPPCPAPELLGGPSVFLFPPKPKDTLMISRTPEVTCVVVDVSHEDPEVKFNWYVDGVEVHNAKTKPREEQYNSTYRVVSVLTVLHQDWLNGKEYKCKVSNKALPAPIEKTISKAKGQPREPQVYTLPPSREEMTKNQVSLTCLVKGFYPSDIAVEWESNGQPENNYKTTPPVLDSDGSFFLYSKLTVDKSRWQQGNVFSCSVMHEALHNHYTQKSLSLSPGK
T8 sequence (Q9Y336 other isoform, or with tags, fused parts or gaps mutant): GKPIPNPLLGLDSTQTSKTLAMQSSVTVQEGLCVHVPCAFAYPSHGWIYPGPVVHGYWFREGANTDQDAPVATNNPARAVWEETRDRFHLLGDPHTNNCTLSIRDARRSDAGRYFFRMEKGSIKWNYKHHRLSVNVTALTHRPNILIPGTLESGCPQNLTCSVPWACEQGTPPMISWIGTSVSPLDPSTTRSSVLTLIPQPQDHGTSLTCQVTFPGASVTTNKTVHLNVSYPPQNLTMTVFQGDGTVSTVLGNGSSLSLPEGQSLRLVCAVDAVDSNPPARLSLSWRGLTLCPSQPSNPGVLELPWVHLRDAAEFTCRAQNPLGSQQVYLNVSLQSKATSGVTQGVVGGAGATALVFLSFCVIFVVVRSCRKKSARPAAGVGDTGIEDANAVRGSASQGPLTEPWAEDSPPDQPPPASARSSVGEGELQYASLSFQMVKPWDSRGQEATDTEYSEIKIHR
T1 sequence (Q9Y336 other isoform, or with tags, fused parts or gaps mutant): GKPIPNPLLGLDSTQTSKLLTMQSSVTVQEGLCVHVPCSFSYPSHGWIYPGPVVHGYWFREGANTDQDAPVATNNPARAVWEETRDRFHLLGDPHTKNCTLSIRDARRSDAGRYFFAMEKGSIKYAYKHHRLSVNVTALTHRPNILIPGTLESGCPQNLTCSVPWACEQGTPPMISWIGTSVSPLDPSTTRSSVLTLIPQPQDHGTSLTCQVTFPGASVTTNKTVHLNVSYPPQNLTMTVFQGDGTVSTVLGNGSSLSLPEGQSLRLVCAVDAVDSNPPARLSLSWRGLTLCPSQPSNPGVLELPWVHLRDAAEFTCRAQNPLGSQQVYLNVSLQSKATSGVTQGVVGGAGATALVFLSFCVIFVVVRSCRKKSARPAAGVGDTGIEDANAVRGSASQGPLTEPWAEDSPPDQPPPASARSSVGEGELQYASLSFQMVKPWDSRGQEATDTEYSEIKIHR

binding result [1]	binding result [2]	binding result [3]	binding result [4]	binding result [5]	Kd [6]	koff [6]	Kd [7]	koff [7]	binding result [8]	binding result [9]	binding result [10]	binding result [11]	binding result [12]	binding result [13]	binding result [14]	Binder
binds	binds	binds	binds	no binding	4.12 nM	0.00011 s⁻¹										Fab.D (Fab of mAbD) (Fab, V domains shown) VH: QIQLVQSGPELKKPGETVKISCKASGYTFTDYSMHWVKQAPGKGLKWMGWIITETGEPTYADDFRGRFAFSLETSANTAYLQINNLKNEDTATYFCARDFDGYWGQGTTLTVSS VL: DILMTQSPASLSASVGETVTITCRASENIYSYLAWYQQKRGKSPQFLVYNAKTLTEGVPSRFRGSGSGTQFSLKINSLQPEDFGTYYCQHHYGFPWTFGGGTKLEIK
		binds			0.4 nM	0.00016 s⁻¹	0.06 nM	4e-05 s⁻¹	binds	binds	binds	binds	no binding			Fab1 (Fab of mAb1) (Fab, V domains shown) VH: DVQLQESGPGLVKPSQSLSLTCTVTGYSITGGFAWNWIRQFPGNTLEWMGYIGYGGSTSYNPSLNSRISITRDTSKNHFFLQFNSVTTDDSATYYCARGDYLFAYWGQGTLVTVSA VL: DIVMTQSHKFMSTSVGDRVSITCKASQDVNTAVAWYQQKPGQSPKLLIYSASYRYTGVPDRFTGSGSGTDFTFTISSVQAEDLAVYYCQQHYSTPRTFGGGTKLEIK
					0.8 nM	0.00017 s⁻¹	0.07 nM	4e-05 s⁻¹								Fab2 (Fab of mAb2) (Fab, V domains shown, Fab fragment of the antibody) VH: EVQLQESGPGLVKPSQSLSLTCTVTGYSITGGFAWNWIRQFPGNTLEWMGYIGYGGSTSYNPSLNSRISITRDTSKNHFFLQFNSVTTEDSATYYCARGDYLFAYWGQGTLVTVSA VL: DIVMTQSHKFMSTSVGDRVSITCKASQDVNTAVAWYQQKPGQSPKLLIYSASYRYTGVPDRFTGSGSGTDFTFTISSVQAEDLAVYYCQQHYSTPRTFGGGTKLEIK
					1 nM	0.00046 s⁻¹			binds	binds	binds	binds	no binding			Fab.F (Fab of mAbF) (Fab, V domains shown) VH: QVQLQQSGPEVVRPGVSVKISCKGSGYTFTDYSMHWVKQSHAKSLEWIGVISTYNGNTNYNQKFKGKATMTVDKSSSTAYMELARLTSEDSAIYYCARRGYYGSSSWFGYWGQGTLVTVSA VL: DIVMTQSQKFMSTSVGDRVSVTCKASQNVGTDVAWYQQKPGQSPEALIYSASYRYSGVPDRFTGSGSGADFTLTISNVQSEDLAEYFCQQYNSFPYTFGGGTKLEIK
	binds	binds			0.04 nM	2.5e-05 s⁻¹				binds				no binding		Fab.A (Fab of mAbA) (Fab, V domains shown) VH: QVQLQQPGAELVKPGSPVKLSCKASYFTFTSYWMHWVRQRPGQGLEWIGEINPSNGHTNYNEKFESKATLTVDRSSSTAYMQLSSLTSEDSAVFYCANGVESYDFDDALDYWGQGTSVTVSS VL: DIQMTQTTSSLSASLGDRVTISCRASQDINNYLNWYQQKPDGTIKLLIYYTSRLHSGVPSRFSGSGSGTDYSLTINNLEQEDIATYFCQQGNTLPFTFGGGTKLEIK
	binds	binds			0.37 nM	0.00031 s⁻¹				binds				no binding		Fab.B (Fab of mAbB) (Fab, V domains shown) VH: QVQLQQPGAELVKPGASVKLSCKASVYTFTSYWMHWVKQRPGQGLEWIGEINPSNGHTNYNEKFKTKAKLTVDKSSSTAYMQLSSLTSEDSAVYFCANGVETYDFDDAMDYWGQGTSVTVSS VL: DIQMTQTTSSLSASLGDRVTISCRASQDINNYLNWYQQKPDGTVKLLIYFTSRLHSGVPSRFSGSGSGTDYSLTISNLEQEDIATYFCQQGDTFPFTFGGGTKLEIK
					1 nM	0.0019 s⁻¹			binds	binds	binds	binds	no binding			Fab.E (Fab of mAbE) (Fab, V domains shown) VH: DVQLVESGGGLVQPGGSRKLSCAASGFTFSTFGMHWVRQAPEKGLEWVAYISSGSNAIYYADTVKGRFTISRDNPKNTLFLQMTSLRSEDTAMYYCASPGYGAWFAYWGQGTLVTVSA VL: ENVLTQSPAIMSASPGEKVTMTCRASSSVSSAYLHWYQQKSGASPKLWIYSTSNLASGVPARFSGSGSGTSYSLTISSVEAEDAATYYCQQYSAYPYTFGGGTKLEIK
binds	binds		binds		0.55 nM	0.00043 s⁻¹				binds					no binding	Fab.C (Fab of mAbC) (Fab, V domains shown) VH: QIQLVQSGPELKKPGETVKISCKASGYTFTNYEMNWVKEAPGKGLKWMGWINTYTGESTYADDFKGRFAFSLETSASTVYLQINNLKDEDVATYFCVRDDYGRSYGFAYWGQGTLVTVSA VL: NIVLTQSPASLTVSLGQRANISCRASESVDSYGNSFMHWYQQKPGQPPKLLIYLASKLESGVPARFSGSGSRTDFTLTIDPVETDDAATYYCHQNNEDPPWTFGGGTKLEIK
